What all share (settings): both partners purified
One assay concerns the target T1, GRB7 SH2 domain (human, UniProt Q14451 431-527).
T1 construct: GRB7, human; source: bacterial expression, purified
Description: fluorescence polarisation; saturation binding in solution: rhodamine peptide fixed at 10 nM, protein titrated 0.002-10 uM, 20 min at room temperature; assay buffer 20 mM HEPES, 100 mM KCl, 0.1% Tween-20, 5 mM DTT, pH 7.8; apparent KD.

The target of the next assay is T2, PTK6 SH2 domain (human, UniProt Q13882 78-170).
T2 construct: PTK6, human; source: bacterial expression, purified
Described as above.

The target of the next assay is T3, GRAP2 SH2 domain (human, UniProt O75791 58-149).
T3 construct: GRAP2, human; source: bacterial expression, purified
T3 sequence (looked up): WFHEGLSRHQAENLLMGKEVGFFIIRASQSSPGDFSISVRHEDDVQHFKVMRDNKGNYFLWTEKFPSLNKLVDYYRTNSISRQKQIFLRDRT
Description: peptide or protein array; SH2/PTB proteins spotted on aldehyde slides, rhodamine peptide titrated in buffer B (20 mM HEPES, 100 mM KCl, 0.1% Tween-20, 5 mM DTT, pH 7.8), 1 h at room temperature; replicate assays.

The target in a further assay is T4, ITK SH2 domain (human, UniProt Q08881 239-338).
T4 construct: ITK, human; source: bacterial expression, purified
T4 sequence (looked up): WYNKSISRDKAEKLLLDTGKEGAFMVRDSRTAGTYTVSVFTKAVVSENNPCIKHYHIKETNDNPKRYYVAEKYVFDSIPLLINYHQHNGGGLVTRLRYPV
The assay is described as above.

For another assay, the target named is T5, ABL2 SH2 domain (human, UniProt P42684 173-263).
T5 construct: ABL2, human; source: bacterial expression, purified
T5 sequence (looked up): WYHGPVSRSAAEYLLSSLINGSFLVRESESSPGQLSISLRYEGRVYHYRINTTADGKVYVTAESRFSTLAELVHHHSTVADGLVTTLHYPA
Described as above.

The next assay deals with T6, LCK SH2 domain (human, UniProt P06239 127-224).
T6 construct: LCK, human; source: bacterial expression, purified
Described as above.

Another assay deals with T7, BLK SH2 domain (human, UniProt P51451 124-220).
T7 construct: BLK, human; source: bacterial expression, purified
Described as above.

The next assay concerns the target T8, SH2D3A SH2 domain (human, UniProt Q9BRG2 15-114).
T8 construct: SH2D3A, human; source: bacterial expression, purified
Described as above.

A further assay concerns the target T9, BLNK SH2 domain (human, UniProt Q8WV28 346-453).
T9 construct: BLNK, human; source: bacterial expression, purified
T9 sequence (looked up): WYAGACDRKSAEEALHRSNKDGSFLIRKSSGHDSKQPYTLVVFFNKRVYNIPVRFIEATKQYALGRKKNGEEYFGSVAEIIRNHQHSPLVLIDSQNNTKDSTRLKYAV
Described as above.

The target of the next assay is T10, SHF SH2 domain (human, UniProt Q7M4L6 323-418).
T10 construct: SHF, human; source: bacterial expression, purified
T10 sequence (looked up): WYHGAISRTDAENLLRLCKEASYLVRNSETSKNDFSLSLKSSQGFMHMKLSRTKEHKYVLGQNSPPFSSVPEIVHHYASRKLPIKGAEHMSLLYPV
The assay is described as above.

In another assay the target is T11, STAP1 SH2 domain (human, UniProt Q9ULZ2 177-280).
T11 construct: STAP1, human; source: bacterial expression, purified
T11 sequence (looked up): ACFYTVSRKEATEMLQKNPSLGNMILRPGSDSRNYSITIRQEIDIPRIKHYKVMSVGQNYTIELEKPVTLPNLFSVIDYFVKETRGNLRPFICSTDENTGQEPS
The assay is described as above.

Another assay concerns the target T12, SUPT6H SH2 domain (human, UniProt Q7KZ85 1325-1431).
T12 construct: SUPT6H, human; source: bacterial expression, purified
The description is as above.

A further assay has as its target T13, YES1 SH2 domain (human, UniProt P07947 158-255).
T13 construct: YES1, human; source: bacterial expression, purified
The assay is described as above.

A further assay deals with SYK tandem SH2 domains (human). Described as above.
The target of the next assay is T14, SHC1 domain construct (human).
T14 chain: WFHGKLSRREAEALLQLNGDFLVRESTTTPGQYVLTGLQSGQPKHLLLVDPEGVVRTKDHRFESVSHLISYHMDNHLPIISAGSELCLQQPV
The description is as above.

In assay [1] the target is T15, PIK3R1 N-terminal SH2 domain (human).
T15 construct: PIK3R1, human; source: bacterial expression, purified
Description: SPR; Biacore 3000; 6X His SH2 proteins held on a Ni-NTA chip, dye-free peptides in solution, equilibrium.

Assay [2] has as its target T16, PIK3R3 C-terminal SH2 domain (human).
T16 construct: PIK3R3, human; source: bacterial expression, purified
Described as above.

Assay [3] addresses T17, PLCG1 C-terminal SH2 domain (human).
T17 construct: PLCG1, human; source: bacterial expression, purified
T17 sequence (P19174 whole entry, looked up): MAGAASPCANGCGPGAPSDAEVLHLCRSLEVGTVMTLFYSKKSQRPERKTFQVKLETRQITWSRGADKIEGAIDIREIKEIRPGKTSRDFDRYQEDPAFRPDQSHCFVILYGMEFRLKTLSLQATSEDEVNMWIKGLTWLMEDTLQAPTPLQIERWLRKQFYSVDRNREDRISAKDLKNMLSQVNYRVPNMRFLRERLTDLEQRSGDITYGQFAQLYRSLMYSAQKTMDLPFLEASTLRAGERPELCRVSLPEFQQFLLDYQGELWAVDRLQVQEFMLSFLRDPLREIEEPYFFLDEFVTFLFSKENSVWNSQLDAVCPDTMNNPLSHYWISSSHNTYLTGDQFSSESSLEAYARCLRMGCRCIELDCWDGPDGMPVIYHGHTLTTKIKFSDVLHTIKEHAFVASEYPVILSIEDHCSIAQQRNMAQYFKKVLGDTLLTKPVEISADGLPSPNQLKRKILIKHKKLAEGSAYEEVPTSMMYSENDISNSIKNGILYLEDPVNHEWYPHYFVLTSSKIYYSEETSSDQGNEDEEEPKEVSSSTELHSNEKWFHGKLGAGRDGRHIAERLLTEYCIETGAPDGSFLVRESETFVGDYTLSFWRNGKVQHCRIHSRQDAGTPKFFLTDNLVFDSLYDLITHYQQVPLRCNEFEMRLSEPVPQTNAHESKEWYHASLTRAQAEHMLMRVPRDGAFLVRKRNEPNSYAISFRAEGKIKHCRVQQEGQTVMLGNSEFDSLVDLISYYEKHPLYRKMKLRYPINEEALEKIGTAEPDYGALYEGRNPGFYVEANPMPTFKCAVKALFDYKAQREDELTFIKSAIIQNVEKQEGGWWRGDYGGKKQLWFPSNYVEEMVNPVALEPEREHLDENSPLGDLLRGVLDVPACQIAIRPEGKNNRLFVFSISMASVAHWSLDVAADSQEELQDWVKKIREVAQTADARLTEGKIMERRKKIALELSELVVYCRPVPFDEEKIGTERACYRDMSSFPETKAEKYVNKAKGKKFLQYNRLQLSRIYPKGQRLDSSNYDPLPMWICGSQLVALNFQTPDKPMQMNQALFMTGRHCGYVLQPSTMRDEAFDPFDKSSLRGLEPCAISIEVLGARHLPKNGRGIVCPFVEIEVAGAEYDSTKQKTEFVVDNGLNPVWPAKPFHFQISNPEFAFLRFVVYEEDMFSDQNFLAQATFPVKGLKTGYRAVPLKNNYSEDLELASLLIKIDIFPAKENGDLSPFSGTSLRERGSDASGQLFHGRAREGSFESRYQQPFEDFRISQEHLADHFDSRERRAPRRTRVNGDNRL
The description is as above.

For assay [4], the target named is T18, SYK C-terminal SH2 domain (human).
T18 construct: SYK, human; source: bacterial expression, purified
The assay is described as above.

For another assay, the target named is T19, TNS3 SH2 domain (human, UniProt Q68CZ2 1172-1282).
T19 construct: TNS3, human; source: bacterial expression, purified
T19 sequence (looked up): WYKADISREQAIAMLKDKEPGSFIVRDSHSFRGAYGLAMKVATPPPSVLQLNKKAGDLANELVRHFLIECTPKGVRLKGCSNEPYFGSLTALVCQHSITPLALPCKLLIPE
The description is as above.

The target of a further assay is T20, VAV2 SH2 domain (human, UniProt P52735 673-767).
T20 construct: VAV2, human; source: bacterial expression, purified
T20 sequence (looked up): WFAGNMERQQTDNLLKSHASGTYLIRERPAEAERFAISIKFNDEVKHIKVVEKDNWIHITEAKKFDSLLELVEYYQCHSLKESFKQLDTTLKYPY
The assay is described as above.

For another assay, the target named is T21, SRC SH2 domain (human, UniProt P12931-1 151-248).
T21 construct: SRC, human; also called c-Src; source: bacterial expression, purified
Description: fluorescence polarisation; saturation binding in solution: rhodamine peptide fixed at 10 nM, protein titrated 0.002-10 uM, 20 min at room temperature; assay buffer 20 mM HEPES, 100 mM KCl, 0.1% Tween-20, 5 mM DTT, pH 7.8; apparent KD.

Data on four molecules can be found in paper PMC3433420, “Comprehensive Binary Interaction Mapping of SH2 Domains via Fluorescence Polarization Reveals Novel Functional Diversification of ErbB Receptors” (PLoS ONE, 2012).

Values joined by “and” are separate entries in the source; they are usually repeats but may differ in a detail not shown here. Identical values can stand only once. Non-standard residues stand in square brackets, D forms with d. No end group written: not given here. pY = N[C@@H](Cc1ccc(OP(=O)(O)O)cc1)C(=O)O; Rhodamine = not defined here; rhodamine = not defined here

T7 sequence (P51451 124-220): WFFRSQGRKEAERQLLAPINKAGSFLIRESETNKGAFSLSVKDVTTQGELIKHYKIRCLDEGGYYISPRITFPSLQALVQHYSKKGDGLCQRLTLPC
T6 sequence (P06239 127-224): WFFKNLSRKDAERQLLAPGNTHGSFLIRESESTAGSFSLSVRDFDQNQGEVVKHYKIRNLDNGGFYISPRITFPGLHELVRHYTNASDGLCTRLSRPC
T13 sequence (P07947 158-255): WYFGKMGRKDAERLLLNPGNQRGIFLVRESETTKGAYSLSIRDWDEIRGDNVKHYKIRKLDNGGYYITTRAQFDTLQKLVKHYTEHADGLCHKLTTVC
T8 sequence (Q9BRG2 15-114): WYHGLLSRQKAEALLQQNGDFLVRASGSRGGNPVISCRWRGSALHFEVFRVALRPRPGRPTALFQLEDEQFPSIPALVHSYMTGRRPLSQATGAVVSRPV
T1 sequence (Q14451 431-527): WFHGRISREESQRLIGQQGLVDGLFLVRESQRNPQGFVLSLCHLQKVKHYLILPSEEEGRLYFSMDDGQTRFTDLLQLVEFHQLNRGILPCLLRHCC
T12 sequence (Q7KZ85 1325-1431): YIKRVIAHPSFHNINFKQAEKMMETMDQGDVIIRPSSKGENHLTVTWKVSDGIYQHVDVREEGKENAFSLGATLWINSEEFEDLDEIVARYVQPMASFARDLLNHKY
T2 sequence (Q13882 78-170): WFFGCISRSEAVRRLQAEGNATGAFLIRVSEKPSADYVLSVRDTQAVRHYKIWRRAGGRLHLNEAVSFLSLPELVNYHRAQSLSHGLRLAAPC

B1: ErbB3pY1197 phosphopeptide, rhodamine-labelled (peptide)
peptide: Rhodamine-EDEE[pY]EYMNRRRD
modifications: reading uncertain
notes: human ErbB3 around Tyr1197; also called labeled peptide 4; source: synthetic peptide
B1: the Kd with GRB7 SH2 domain was 130 nM; in the assay with PTK6 SH2 domain, 5790 nM.

B2: ErbB2 pY1112 phosphopeptide, rhodamine-labelled, for protein microarrays (peptide)
chain: Rhodamine-PLQR[pY]SEDPTVPD
modifications: reading uncertain
Regarding B2, the Kd with GRAP2 SH2 domain is 7150 nM; with ITK SH2 domain, 52900 nM; with ABL2 SH2 domain it was 1840 nM; in the assay with LCK SH2 domain it was 10300 nM and 8930 nM; with BLK SH2 domain, 3220 nM and 1170 nM and 2070 nM; with SH2D3A SH2 domain it was 26600 nM. The Kd with BLNK SH2 domain was 4900 nM; in the assay with SHF SH2 domain, 2970 nM; with STAP1 SH2 domain, 50 nM; with SUPT6H SH2 domain, 1040 nM; with YES1 SH2 domain it was 720 nM and 1600 nM; with SYK tandem SH2 domains, 893 nM and 803 nM. In the assay with SHC1 domain construct, the Kd is 1260 nM and 3060 nM.

B3: MET pY1313 phosphopeptide, dye-free (peptide)
chain: PDPL[pY]EVMLKCW
For the molecule B3, the Kd was 53 nM in [1]; 56 nM in [2]; 486 nM in assay [3]; 1660 nM in [4]; 132 nM with TNS3 SH2 domain; 2510 nM with VAV2 SH2 domain.

B4: ErbB3pY1222 phosphopeptide, rhodamine-labelled (peptide)
peptide: rhodamine-EELG[pY]EYMDVGSD
modifications: reading uncertain
notes: human ErbB3 around Tyr1222; also called labeled peptide 5; source: synthetic peptide
As for B4, the Kd with SRC SH2 domain was determined as 2330 nM.
